From the DeepSol protein solubility set

Assay: soluble on expression in E. coli; label from the status in PepcDB or PDB records

Row | Sequence | soluble on expression in E. coli
1 | MERRSTDLLVLGAGVAGVYAALAAEERGARVLLVSKDPLPAGSTPWAQGGVAFPVGEEDLEAHLRDTLVAGRGLVEEGVARSILEEAPRHLERLRAFGLPFHPEPTREGGHSRARVFHLGGDRSGLLLLEGLLKRLSTPVVPAQALSLLVSGNRVAGALLWGPGGLWEVRAGAVLLATGGFGRLFPVTTNPHGATGDGMALAWRAGAVLRDLEFVQFHPTALPNGALVSEACRGEGALLLNAHGERFMPRYDPLAELAPRDVVARAVFRERERTGGVYLDLRPIPHLEERFPTVVAQARALGLDPLRAPLPVAPAAHYAMGGVRTDAFGHTGIPGLFAAGEVASTGFHGANRLASNSLLEGLVVGWRAALRALEDLAFPPRATPLPALAAPPEAVASLREEAGEALGVVRRKETLLAFLRRAEAVPLEEVEQASRDRLEAGSLLLLMRLLARAALAREESRGAHFREDFPLEDRPRHSLFQGWRLGFLPVGVE | soluble
2 | MGSDKIHHHHHHMFGLIGHLTSLEHAQAVAQELGYPEYADQGLDFWCSAPPQIVDSIIVTSVTGQQIEGRYVESCFLPEMLASRRIKAATRKILNAMAHAQKHGINITALGGFSSIIFENFKLEQFSQVRNIKLEFERFTTGNTHTAYIICKQVEEASKQLGINLSNATVAVCGATGDIGSAVTRWLDARTDVQELLLIARDQERLKELQGELGRGKIMGLTEALPQADVVVWVASMPRGVEIDPTTLKQPCLLIDGGYPKNLATKIQYPGVHVLNGGIVEHSLDIDWKIMKIVNMDVPARQLFACFAESMLLEFEKLYTNFSWGRNQITVDKMEQIGRVSVKHGFRPLLV | not soluble
3 | MGSDKIHHHHHHMSKFKVKRLTAHILMLKVINDMLKYSFHLTLTQVKLLNLLVKYDNSDSNSASIDRLLKMKEIQSKMALLQMLSYLNNHQWLLKGRDQRDQRKLTISINKMHIDKIEYMNNELSDYIERYFGQYTFDFSCDYVSYLLSSQELFRNLKCYLNMCQLTLEELYVLGILNLHKGQLTVKELQGEFHHPIFAVSPILKCLILKGLVKKERCELDERRVIVTIKREKFSKVTMLIQACYNYLEKGIQVKLNNK | not soluble
4 | VPACTVSNTTVDWQDVEIQTLSQNGNHEKEFTVNMRCPYNLGTMKVTITATNTYNNAILVQNTSNTSSDGLLVYLYNSNAGNIGTAITLGTPFTPGKITGNNADKTISLHAKLGYKGNMQNLIAGPFSATATLVASYS | soluble
5 | MSLEALGVAVVGFGWMGRVHTQAYARVRHHYPHLALRPELVTVAEEVPGRAEEAAAQFGFASTTRDWREVAADPRVHAVSITAPNFLHREIAVAMAGAGKHIWVEKPVGLSSDDARAVADAVSGAGVQGAVGFNYRNAPAVETARRLIAAGEIGTVTHARLRFFSDYAAHPEGALTWRYERERGGSGVLGDLASHGADLARFLLGDIASLTADTAVFVPERARPASATAGHARATGGEPGPVENEDYVSCLLRFASGARGVLEACRVSVGEQNNYGFEVHGTTGAVFWDFRRMNELRVSRGTEYQDQPVSTVYVGPGDGEFAAFQPGAANAMGYDDLKVVEAHRFLRSIAEGTPYGATLSDAVHSAAVLEAMSRSAERGTWVSPGEGHHHHHH | soluble
6 | AATQTWTGDLAIVTIPFSSLRFVKVTPPFSYKKRRAVIETHYDQATKVLLEFSRRWWEFTEADWKRELDAIAPGLYDYYQQWGEDDAEAALALPQSVRNLPTGLLGAHPSVDESRIGEEQVEYYRNSELR | soluble
7 | MGSDKIHHHHHHMSVISENVKYFRKQLGFTQEQLAQRIGIKRSLLGAYEEGRAEPGLETLTILARLFETTVDALISETLSDPGKRKEAMSKDIEGKKLRVLAITVDKDDKENIQLVPEKAAAGYLNGYADPEYVAELPQFYLPIFSGSGTYRAFEIKGDSMLPLASGSLIIGQYVDNWSSVKDQQTYILVTATEGIVYKRIYNNIKKNETLKLVSDNPAYEPYDIHVENVIEIWESKAYISTDFPKPDMSVEKLTAIVSGLQKQMNKLSND | not soluble
8 | MGTRCAVTPELRFVLAFPDVYEVGMSHLGLQILYGVLNTLDGVAAERAYAPWPDREAQLRAEGIPLATLESGTSLDRADIVGFTLQYELSYTNILNMLDLAGIPLLASERDERHPLIIGGGPCACNPEPLADFFDAFLLGDGEEAVIEIAEAFRAWKRAGGARSGLLERLAGIAGVYVPSFFAVRYGDNNRIAAVEPLRPDYGPVKRRFLAELEPAAYPTAPVVPFLKTIHDRVSVEISRGCTRGCRFCQAGYLYRPVRERSPEKILALVEETLRATGYDEISLLSLSTGDYGCLTPLLTELMARYASERIAVSLPSMRVGSLNDELVEAIRTVRKTGFTLAPEAGSERLRRVINKGISEEDLLRNAFEAYSHGWRLIKLYFMIGLPGETEEDLHGIVELARKVKMEGRRAGSGGEVNVSVSTFVPKAHTPFQWEPQIPVGEILEKQGLLRRELRARKLVFKWHDAPLSFMEGVFARGDRRLGAALRRAWELGCRFDGWGDRFDEAAWRTAFEETGIDPAFYHRRREPDEVLPWGHLDFGVTREFLLRELELSRQGAATEDCRTGRCTGCGVCDFSQVRLRLADDGLEHHHHHH | not soluble
9 | ALCAICGDRATGKHYGASSCDGCKGFFRRSVRKNHMYSCRFSRQCVVDKDKRNQCRYCRLKKCFRAGMKKEAVQNERD | soluble
10 | MAEHGETQADEEEEEQVWSWGAGTDGQLGTTKLQDELLPQLLSLTSLPSISMLACGGAHVIALTSGGKVFTWGRGSSGQLGHGDILNITLPKLVSFFDDSVITQAAAGWSHSGFVSDSGCIFTCGNGSFGQLGHGDTLSLSTPAKVSHFNNDSVKMVACGMRHSLVLFAGNQVCGFGSGKRGQLGFSSDRIKSVNLPCVVSGLKDVEVVRISANGDHSAAISADGQFFSWGRGFCGGPDVHAPQSLPSPLSFREVAVGWNHALLLTVDGEVFKLGSTLNKQPEKQQLQIDSSEALFEKVPDFDGVKVMQIAAGAEHSAAVTENGEVKTWGWGEHGQLGLGNTNDQTSPELVSLGSIDLRTKEIKVYCGSGFTYAVKRKQELSPTSS | soluble
11 | MGSDKIHHHHHHMANGTTPSVGIALGSGAAKGWAHIGVLNGLAAMGIKPDKVAGCSVGALVGAAYAHDHLPELEEWVRSFSSWDVLGLMDIRWRKGGLIGGDKVFDVLQARIGDVNIENLNRPFAAVATDLYSGQEIWFTEGDLRQAVRASCSMPGILAPVRQGDRWLVDGAVVNPVPVSVSRAMGVDVVIAVDLYGYHSGRIQVLPVSMTSQKNVEAEMDMSARQETGFMDLFARGRDYVSNLTDKFSLGTKSNPGMIAVMSQSMGILEQRHKRARLMGDPPDICIVPEVGNIGTMEFHRADEAIAAGEAAVEKVAHLIEAALWKG | not soluble
12 | MAHHHHHHMEAAAERCFQEGDLKGAACLYANLMVLYPQYTKMARMCRVLSNPLDVPLPYRYADVVEALLDPCVTYQTLFGTDAPPSVVRKAFQGWTLLVHPDKNPYPKAADAFNRLVAFKAAAMGTVDEGPPNAGGVNSKSSCRGNVRNRQRCTKRHGSANRANQSNQHSQLGDEIDMSLYELKKVQVTLKSLKRKNVDDSELPPLSAFLRPGGGARSRGGVDHSNNTKGSVPTPETQEGGSASLDESIPTSPRSCTADTACEPGLSQTIEAQLRSSEGATDAPYVLSELTPQQNEVVRGGKGLEGENTEEPLGLPTAGGHMQQYATNRNVGEVDNGSRVSLEADDSVQGPAKGIQNPDALPRRRGKHVDRLEGTCTGEFTQQSNQNSTCDTSSSEGLHSTTFNEDVPLVELAKLGIRELFDGIQKKINRDPIRLNCDLSFATYTRDKQKEVNEASVQSNDET | not soluble
13 | MSLLTQIKGEWVLGFADGNHRMLRDASVVYEGERIVHVGTEFDGVADRVIDARGCLVAPGFIDTHVHSGHRALHKLLADGGRPDLFGQPYMDVTIARDGTRIKGYPNYLSREEAAVDPGIALHAAFTVAELLRNGVTTFVELGGHVMVQEALWRECERLGVRGYLGAGYDSGRWAADDQGRLRRVPYPDGGDHLFEEAVAFIKRVQAAGNDLVNGILVPREVENCSVDILRRTVQAAQELGVPMATHAGYNVIEFYETVREHRMTPIELLHSVGMLGPRLNIGHANLISDSPRLNYSGGRDLALMGEHRVSISHCPINIVRRARVLDSWKKYREAGVNLTIGSDTYPRDMVMNMRTASYHGKVMSHDLTAASAAEVFEAATLGGARSLGRTDIGRLEPGARADVIAINVGRQDVLRYGPIWDPIRSLVECGVGDDVELVVTNGQVRMEQGRIVGVDLGALRAEAQQFADNVWRDLQDWDPLRRTAQAMCPPLFCPDCMEGHHHHHH | soluble
